Test results reported in patent CN116284393A (BEIJING DONGFANG BIOTECH CO LTD, dated 2023).

Tests used:
[1] = target: T1, 人单核细胞白血病细胞(THP-1)表面LILRB4 (human, UniProt Q8NHJ6 22-448); test: cell-based or functional assay
[2] = target: T2, LILRA5 (UniProt A6NI73 42-268, limits assumed); test: ELISA, coated protein 100ng/well
[3] = target: T3, LILRA6 (UniProt Q6PI73 24-447, limits assumed); test: ELISA, coated protein 100ng/well
[4] = target: T4, LILRB1 (UniProt Q8NHL6 24-461, limits assumed); test: ELISA, coated protein 100ng/well
[5] = target: T5, LILRB2 (UniProt Q8N423 22-460, limits assumed); test: ELISA, coated protein 100ng/well
[6] = target: T6, LILRB3 (UniProt O75022 24-443, limits assumed); test: ELISA, coated protein 100ng/well
[7] = target: T7, LILRB5 (UniProt O75023 24-458, limits assumed); test: ELISA, coated protein 100ng/well
[8] = target: T8, LILRA1 (UniProt O75019 17-461, limits assumed); test: ELISA, coated protein 100ng/well
[9] = target: T9, LILRA2 (UniProt Q8N149 24-449, limits assumed); test: ELISA, coated protein 100ng/well
[10] = target: T10, LILRA3 (UniProt Q8N6C8 24-439); test: ELISA, coated protein 100ng/well
[11] = target: T11, LILRA4 (UniProt P59901 24-446, limits assumed); test: ELISA, coated protein 100ng/well
[12] = target: T2, LILRA5; test: ELISA, coated protein, antibody at 50μg/mL
[13] = target: T3, LILRA6; test: ELISA, coated protein, antibody at 50μg/mL
[14] = target: T4, LILRB1; test: ELISA, coated protein, antibody at 50μg/mL
[15] = target: T5, LILRB2; test: ELISA, coated protein, antibody at 50μg/mL
[16] = target: T6, LILRB3; test: ELISA, coated protein, antibody at 50μg/mL
[17] = target: T7, LILRB5; test: ELISA, coated protein, antibody at 50μg/mL
[18] = target: T12, LILRB4抗原 (人LILRB4蛋白胞外段) (human, UniProt Q8NHJ6 22-259); test: ELISA, coated protein, antibody at 50μg/mL
T12 construct: extracellular domain; Made in house from a synthesised gene

[19] = target: T8, LILRA1; test: ELISA, coated protein, antibody at 50μg/mL
[20] = target: T9, LILRA2; test: ELISA, coated protein, antibody at 50μg/mL
[21] = target: T10, LILRA3; test: ELISA, coated protein, antibody at 50μg/mL
[22] = target: T11, LILRA4; test: ELISA, coated protein, antibody at 50μg/mL
[23] = target: T12, LILRB4抗原 (人LILRB4蛋白胞外段); test: ELISA, coated LILRB4, Goat Anti-Mouse IgG-HRP
[24] = target: T1, 人单核细胞白血病细胞(THP-1)表面LILRB4; test: flow cytometry on THP-1 cells, FITC goat anti-mouse IgG
[25] = target: T1, 人单核细胞白血病细胞(THP-1)表面LILRB4; test: flow cytometry competition on THP-1 cells, competitor FITC-labelled ApoE 0.4μg/mL

T10 sequence (Q8N6C8 24-439 limits assumed): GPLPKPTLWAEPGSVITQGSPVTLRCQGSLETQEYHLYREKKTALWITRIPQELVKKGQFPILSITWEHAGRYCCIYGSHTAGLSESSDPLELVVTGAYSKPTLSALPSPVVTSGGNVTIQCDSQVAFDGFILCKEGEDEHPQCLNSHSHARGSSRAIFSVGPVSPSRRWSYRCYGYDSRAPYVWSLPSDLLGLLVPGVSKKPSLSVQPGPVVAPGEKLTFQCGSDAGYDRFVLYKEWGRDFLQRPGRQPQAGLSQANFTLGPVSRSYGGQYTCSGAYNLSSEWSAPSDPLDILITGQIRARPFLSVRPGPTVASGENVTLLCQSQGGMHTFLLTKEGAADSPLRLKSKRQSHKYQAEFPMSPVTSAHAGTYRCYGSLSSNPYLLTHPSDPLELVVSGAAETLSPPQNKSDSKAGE
T6 sequence (O75022 24-443 limits assumed): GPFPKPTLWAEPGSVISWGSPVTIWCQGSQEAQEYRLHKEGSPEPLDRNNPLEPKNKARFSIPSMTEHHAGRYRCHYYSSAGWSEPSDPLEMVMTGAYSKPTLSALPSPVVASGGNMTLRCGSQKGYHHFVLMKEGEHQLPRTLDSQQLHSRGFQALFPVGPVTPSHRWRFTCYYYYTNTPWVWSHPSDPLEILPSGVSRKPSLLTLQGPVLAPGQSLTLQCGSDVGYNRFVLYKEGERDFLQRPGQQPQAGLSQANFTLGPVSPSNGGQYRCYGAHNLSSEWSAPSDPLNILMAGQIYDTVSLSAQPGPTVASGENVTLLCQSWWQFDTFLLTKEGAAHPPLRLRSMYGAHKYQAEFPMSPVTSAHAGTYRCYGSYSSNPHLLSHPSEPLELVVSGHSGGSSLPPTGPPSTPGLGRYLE
T11 sequence (P59901 24-446 limits assumed): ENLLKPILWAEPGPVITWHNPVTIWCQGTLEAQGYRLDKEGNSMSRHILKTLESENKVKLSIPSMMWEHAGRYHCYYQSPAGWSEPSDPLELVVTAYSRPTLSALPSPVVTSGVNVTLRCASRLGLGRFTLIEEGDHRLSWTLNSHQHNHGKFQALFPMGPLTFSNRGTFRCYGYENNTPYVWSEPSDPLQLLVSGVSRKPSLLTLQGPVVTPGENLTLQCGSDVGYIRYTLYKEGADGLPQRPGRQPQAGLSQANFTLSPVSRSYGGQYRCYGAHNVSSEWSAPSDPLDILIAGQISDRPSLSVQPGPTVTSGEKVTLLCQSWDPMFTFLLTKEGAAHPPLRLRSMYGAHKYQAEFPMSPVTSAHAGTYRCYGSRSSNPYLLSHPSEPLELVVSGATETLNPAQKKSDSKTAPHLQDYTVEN
T9 sequence (Q8N149 24-449 limits assumed): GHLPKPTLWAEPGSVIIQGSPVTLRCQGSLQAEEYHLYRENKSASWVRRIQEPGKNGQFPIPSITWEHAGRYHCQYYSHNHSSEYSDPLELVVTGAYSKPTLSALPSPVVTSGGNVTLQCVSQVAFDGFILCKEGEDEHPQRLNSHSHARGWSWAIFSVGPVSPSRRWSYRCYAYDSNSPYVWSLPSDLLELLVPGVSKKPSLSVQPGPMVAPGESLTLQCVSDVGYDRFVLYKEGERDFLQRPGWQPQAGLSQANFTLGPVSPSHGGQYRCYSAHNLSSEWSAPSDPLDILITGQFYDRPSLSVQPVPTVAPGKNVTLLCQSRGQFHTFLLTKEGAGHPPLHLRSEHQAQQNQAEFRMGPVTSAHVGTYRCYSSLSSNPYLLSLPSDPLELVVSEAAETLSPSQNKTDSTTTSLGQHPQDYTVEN
T5 sequence (Q8N423 22-460 limits assumed): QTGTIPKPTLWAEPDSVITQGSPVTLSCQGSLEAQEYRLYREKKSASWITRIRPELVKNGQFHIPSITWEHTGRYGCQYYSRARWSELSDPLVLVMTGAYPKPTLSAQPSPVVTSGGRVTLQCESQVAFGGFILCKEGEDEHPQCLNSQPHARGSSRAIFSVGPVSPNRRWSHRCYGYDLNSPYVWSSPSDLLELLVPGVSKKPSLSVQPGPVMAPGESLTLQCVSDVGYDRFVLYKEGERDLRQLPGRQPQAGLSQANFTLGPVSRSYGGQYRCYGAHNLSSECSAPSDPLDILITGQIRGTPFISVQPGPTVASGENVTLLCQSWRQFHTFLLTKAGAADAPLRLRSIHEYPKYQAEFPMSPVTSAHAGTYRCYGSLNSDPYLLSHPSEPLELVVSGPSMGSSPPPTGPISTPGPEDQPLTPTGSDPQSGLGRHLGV
T8 sequence (O75019 17-461 limits assumed): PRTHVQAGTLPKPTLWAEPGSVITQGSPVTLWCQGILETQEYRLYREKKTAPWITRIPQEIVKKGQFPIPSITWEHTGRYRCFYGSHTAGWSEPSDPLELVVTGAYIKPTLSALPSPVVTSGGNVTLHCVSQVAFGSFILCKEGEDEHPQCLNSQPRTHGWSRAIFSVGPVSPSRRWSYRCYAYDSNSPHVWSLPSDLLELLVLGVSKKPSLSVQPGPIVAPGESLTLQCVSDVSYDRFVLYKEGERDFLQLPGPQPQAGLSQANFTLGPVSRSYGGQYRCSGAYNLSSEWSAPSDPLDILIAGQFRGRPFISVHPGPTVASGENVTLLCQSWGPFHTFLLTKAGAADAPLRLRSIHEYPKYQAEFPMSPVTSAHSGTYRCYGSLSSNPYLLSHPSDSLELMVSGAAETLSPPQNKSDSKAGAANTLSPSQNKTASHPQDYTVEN
T2 sequence (A6NI73 42-268 limits assumed): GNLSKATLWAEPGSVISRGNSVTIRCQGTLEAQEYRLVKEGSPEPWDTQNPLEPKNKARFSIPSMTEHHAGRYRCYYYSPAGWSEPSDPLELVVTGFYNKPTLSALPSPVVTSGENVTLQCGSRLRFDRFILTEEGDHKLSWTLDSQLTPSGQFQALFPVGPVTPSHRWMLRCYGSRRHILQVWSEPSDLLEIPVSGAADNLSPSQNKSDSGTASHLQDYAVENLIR
T4 sequence (Q8NHL6 24-461 limits assumed): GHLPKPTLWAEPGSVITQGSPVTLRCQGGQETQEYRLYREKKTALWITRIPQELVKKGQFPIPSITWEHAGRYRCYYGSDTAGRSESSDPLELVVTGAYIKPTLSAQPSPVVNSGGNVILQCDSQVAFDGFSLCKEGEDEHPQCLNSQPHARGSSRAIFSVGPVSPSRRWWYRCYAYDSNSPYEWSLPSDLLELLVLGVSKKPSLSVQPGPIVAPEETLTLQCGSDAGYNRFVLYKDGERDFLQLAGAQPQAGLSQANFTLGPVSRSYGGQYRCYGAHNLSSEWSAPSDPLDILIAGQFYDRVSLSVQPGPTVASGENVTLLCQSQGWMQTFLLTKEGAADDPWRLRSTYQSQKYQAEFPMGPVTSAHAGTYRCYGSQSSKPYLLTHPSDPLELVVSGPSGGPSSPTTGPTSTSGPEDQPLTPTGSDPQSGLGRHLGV
T7 sequence (O75023 24-458 limits assumed): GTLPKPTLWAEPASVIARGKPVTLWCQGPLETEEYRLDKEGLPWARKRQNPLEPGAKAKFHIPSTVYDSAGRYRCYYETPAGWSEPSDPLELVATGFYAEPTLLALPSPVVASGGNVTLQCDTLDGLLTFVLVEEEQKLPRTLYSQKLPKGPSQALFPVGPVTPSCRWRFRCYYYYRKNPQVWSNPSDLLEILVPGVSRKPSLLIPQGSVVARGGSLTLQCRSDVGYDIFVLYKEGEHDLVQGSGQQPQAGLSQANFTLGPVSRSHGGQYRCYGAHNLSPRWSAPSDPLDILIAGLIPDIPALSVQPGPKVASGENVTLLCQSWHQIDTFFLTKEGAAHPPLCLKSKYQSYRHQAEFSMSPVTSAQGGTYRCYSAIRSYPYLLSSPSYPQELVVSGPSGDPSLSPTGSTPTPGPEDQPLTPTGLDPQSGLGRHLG
T3 sequence (Q6PI73 24-447 limits assumed): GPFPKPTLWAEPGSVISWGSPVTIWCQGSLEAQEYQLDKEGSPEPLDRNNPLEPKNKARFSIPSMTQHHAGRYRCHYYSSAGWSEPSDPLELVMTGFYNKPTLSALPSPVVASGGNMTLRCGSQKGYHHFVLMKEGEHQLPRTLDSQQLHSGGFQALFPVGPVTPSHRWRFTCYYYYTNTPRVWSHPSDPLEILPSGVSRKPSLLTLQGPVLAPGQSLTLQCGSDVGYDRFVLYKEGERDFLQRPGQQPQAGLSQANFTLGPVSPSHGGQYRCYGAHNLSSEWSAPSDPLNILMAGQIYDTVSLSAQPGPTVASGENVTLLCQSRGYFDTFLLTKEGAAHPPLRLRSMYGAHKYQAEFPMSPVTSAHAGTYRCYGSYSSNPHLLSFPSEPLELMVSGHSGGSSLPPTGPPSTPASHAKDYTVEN

B1: MG-Ⅰ 单克隆抗体 (mouse IgG1 / Ck full antibody) (antibody, V domains shown)
VH: EVKLEESGGGLVKPGGSLKLSCAASGFTFSSNTMSWVRQTPEKRLEWVATISSGGSYIYYRDSVKGRFTISRDNAKNTLYLQMSSLKSEDTAMYYCTSEGRSRDPYYYSMDYWGQGTSVTVSS
VL: DIVLTQTPLSLPVSLGDQASISCRSSQSLVHSNGNTYLHWYLQKPGQSPKLLIYKVSNRFSGVPDRFSGSGSGTDFTLKISRVEAEDLGVYFCSQSTHVPTFGAGTKLELKA
notes: also called 单克隆抗体MG-Ⅰ
IC50(μg/mL), 抑制THP-1分泌ARG1 (arginase activity in supernatant, with 0.5μg/mL ApoE) [1]: 257 µg/mL
binding result [2]: no binding (tested: 50μg/mL)
binding result [3]: no binding (tested: 50μg/mL)
binding result [4]: no binding (tested: 50μg/mL)
binding result [5]: no binding (tested: 50μg/mL)
binding result [6]: no binding (tested: 50μg/mL)
binding result [7]: no binding (tested: 50μg/mL)
binding result [8]: no binding (tested: 50μg/mL)
binding result [9]: no binding (tested: 50μg/mL)
binding result [10]: no binding (tested: 50μg/mL)
binding result [11]: no binding (tested: 50μg/mL)
OD 450nm/630nm [12]: 0.066
OD 450nm/630nm [13]: 0.053
OD 450nm/630nm [14]: 0.045
OD 450nm/630nm [15]: 0.04
OD 450nm/630nm [16]: 0.05
OD 450nm/630nm [17]: 0.176
OD 450nm/630nm [18]: 2.72
OD 450nm/630nm [19]: 0.103
OD 450nm/630nm [20]: 0.046
OD 450nm/630nm [21]: 0.057
OD 450nm/630nm [22]: 0.077
EC50 [23]: 0.188 µg/mL
EC50 [24]: 4.31 µg/mL
IC50 [25]: 7.18 µg/mL
